Assay results reported in publication PMC12102759 (2025).

B1: CBL peptide 540-555 (E3 ubiquitin-protein ligase CBL), 16-mer library wild type / YES SH3 (YES1 SH3 domain, residues 90-152) (parent complex)
chain 1: RDLPPPPPPDRPYSVG
chain 2: not shown

Variants of: B1
Test: proteomic peptide phage display deep mutational scan (ProP-PD DMS): M13 P8 16-mer library selected against immobilised GST-tagged bait for four days (rounds), NGS of the eluted pools per day and pseudo-replica; bait immobilised on MaxiSorp plates (10 µg), library pre-cleared on GST, 2 h binding at 4 °C, five washes; one round per day, days 1-4; value from days 2 and 3

Row | Variant | screen value
1 | chain 1 P6Y | 0.000164 average fractional NGS count over selection days 2 and 3 (reads of this peptide / all reads for the bait, averaged over …
2 | chain 1 P6Q | 0.000768 average fractional NGS count over selection days 2 and 3 (reads of this peptide / all reads for the bait, averaged over …
3 | chain 1 P6F | 0.00211 average fractional NGS count over selection days 2 and 3 (reads of this peptide / all reads for the bait, averaged over …
4 | chain 1 P6V | 0.0162 average fractional NGS count over selection days 2 and 3 (reads of this peptide / all reads for the bait, averaged over …
5 | chain 1 P6M | 0.0066 average fractional NGS count over selection days 2 and 3 (reads of this peptide / all reads for the bait, averaged over …
6 | chain 1 P6E | 0.000208 average fractional NGS count over selection days 2 and 3 (reads of this peptide / all reads for the bait, averaged over …
7 | chain 1 P12A | 0.00443 average fractional NGS count over selection days 2 and 3 (reads of this peptide / all reads for the bait, averaged over …
8 | chain 1 P12Y | 0.000171 average fractional NGS count over selection days 2 and 3 (reads of this peptide / all reads for the bait, averaged over …
9 | chain 1 P12F | 0.00458 average fractional NGS count over selection days 2 and 3 (reads of this peptide / all reads for the bait, averaged over …
10 | chain 1 P12I | 0.00216 average fractional NGS count over selection days 2 and 3 (reads of this peptide / all reads for the bait, averaged over …
11 | chain 1 P12H | 0.00204 average fractional NGS count over selection days 2 and 3 (reads of this peptide / all reads for the bait, averaged over …
12 | chain 1 P12Q | 0.0162 average fractional NGS count over selection days 2 and 3 (reads of this peptide / all reads for the bait, averaged over …
13 | chain 1 Y13E | 0.000222 average fractional NGS count over selection days 2 and 3 (reads of this peptide / all reads for the bait, averaged over …
14 | chain 1 Y13G | 8.54e-05 average fractional NGS count over selection days 2 and 3 (reads of this peptide / all reads for the bait, averaged over …
15 | chain 1 Y13I | 0.00384 average fractional NGS count over selection days 2 and 3 (reads of this peptide / all reads for the bait, averaged over …
16 | chain 1 Y13A | 0.00126 average fractional NGS count over selection days 2 and 3 (reads of this peptide / all reads for the bait, averaged over …
17 | chain 1 Y13L | 0.00594 average fractional NGS count over selection days 2 and 3 (reads of this peptide / all reads for the bait, averaged over …
18 | chain 1 Y13R | 0.000326 average fractional NGS count over selection days 2 and 3 (reads of this peptide / all reads for the bait, averaged over …
19 | chain 1 V15L | 0.000286 average fractional NGS count over selection days 2 and 3 (reads of this peptide / all reads for the bait, averaged over …
20 | chain 1 V15G | 0.000446 average fractional NGS count over selection days 2 and 3 (reads of this peptide / all reads for the bait, averaged over …
21 | chain 1 V15A | 0.00486 average fractional NGS count over selection days 2 and 3 (reads of this peptide / all reads for the bait, averaged over …
22 | chain 1 V15W | 0.0167 average fractional NGS count over selection days 2 and 3 (reads of this peptide / all reads for the bait, averaged over …
23 | chain 1 V15T | 0.000212 average fractional NGS count over selection days 2 and 3 (reads of this peptide / all reads for the bait, averaged over …
24 | chain 1 V15S | 0.00131 average fractional NGS count over selection days 2 and 3 (reads of this peptide / all reads for the bait, averaged over …
25 | chain 1 V15N | 0.00181 average fractional NGS count over selection days 2 and 3 (reads of this peptide / all reads for the bait, averaged over …

Row | Variant | screen value
26 | chain 1 V15M | 0.00453 average fractional NGS count over selection days 2 and 3 (reads of this peptide / all reads for the bait, averaged over …
27 | chain 1 V15I | 7.73e-05 average fractional NGS count over selection days 2 and 3 (reads of this peptide / all reads for the bait, averaged over …
28 | chain 1 V15H | 0.00504 average fractional NGS count over selection days 2 and 3 (reads of this peptide / all reads for the bait, averaged over …
29 | chain 1 V15E | 0.00362 average fractional NGS count over selection days 2 and 3 (reads of this peptide / all reads for the bait, averaged over …
30 | chain 1 P7K | 0.000178 average fractional NGS count over selection days 2 and 3 (reads of this peptide / all reads for the bait, averaged over …
31 | chain 1 P7A | 0.000371 average fractional NGS count over selection days 2 and 3 (reads of this peptide / all reads for the bait, averaged over …
32 | chain 1 P7H | 0.00103 average fractional NGS count over selection days 2 and 3 (reads of this peptide / all reads for the bait, averaged over …
33 | chain 1 P7W | 0.000156 average fractional NGS count over selection days 2 and 3 (reads of this peptide / all reads for the bait, averaged over …
34 | chain 1 P7F | 0.00308 average fractional NGS count over selection days 2 and 3 (reads of this peptide / all reads for the bait, averaged over …
35 | chain 1 P7E | 0.000775 average fractional NGS count over selection days 2 and 3 (reads of this peptide / all reads for the bait, averaged over …
36 | chain 1 P7R | 0.000229 average fractional NGS count over selection days 2 and 3 (reads of this peptide / all reads for the bait, averaged over …
37 | chain 1 P7N | 0.000153 average fractional NGS count over selection days 2 and 3 (reads of this peptide / all reads for the bait, averaged over …
38 | chain 1 P7T | 0.00618 average fractional NGS count over selection days 2 and 3 (reads of this peptide / all reads for the bait, averaged over …
39 | chain 1 P7I | 0.000596 average fractional NGS count over selection days 2 and 3 (reads of this peptide / all reads for the bait, averaged over …
40 | chain 1 P7G | 9.71e-05 average fractional NGS count over selection days 2 and 3 (reads of this peptide / all reads for the bait, averaged over …
41 | chain 1 P7M | 0.00246 average fractional NGS count over selection days 2 and 3 (reads of this peptide / all reads for the bait, averaged over …
42 | chain 1 P7Y | 0.000167 average fractional NGS count over selection days 2 and 3 (reads of this peptide / all reads for the bait, averaged over …
43 | chain 1 P7Q | 0.000262 average fractional NGS count over selection days 2 and 3 (reads of this peptide / all reads for the bait, averaged over …
44 | chain 1 P5Q | 0.00016 average fractional NGS count over selection days 2 and 3 (reads of this peptide / all reads for the bait, averaged over …
45 | chain 1 P5I | 0.0162 average fractional NGS count over selection days 2 and 3 (reads of this peptide / all reads for the bait, averaged over …
46 | chain 1 P5H | 0.00214 average fractional NGS count over selection days 2 and 3 (reads of this peptide / all reads for the bait, averaged over …
47 | chain 1 P5L | 0.00149 average fractional NGS count over selection days 2 and 3 (reads of this peptide / all reads for the bait, averaged over …
48 | chain 1 P5W | 0.000217 average fractional NGS count over selection days 2 and 3 (reads of this peptide / all reads for the bait, averaged over …
49 | chain 1 P5A | 0.000329 average fractional NGS count over selection days 2 and 3 (reads of this peptide / all reads for the bait, averaged over …
50 | chain 1 P5F | 0.00079 average fractional NGS count over selection days 2 and 3 (reads of this peptide / all reads for the bait, averaged over …

Row | Variant | screen value
51 | chain 1 P5S | 0.00042 average fractional NGS count over selection days 2 and 3 (reads of this peptide / all reads for the bait, averaged over …
52 | chain 1 P5M | 0.00164 average fractional NGS count over selection days 2 and 3 (reads of this peptide / all reads for the bait, averaged over …
53 | chain 1 P5K | 0.0018 average fractional NGS count over selection days 2 and 3 (reads of this peptide / all reads for the bait, averaged over …
54 | chain 1 P5Y | 0.000822 average fractional NGS count over selection days 2 and 3 (reads of this peptide / all reads for the bait, averaged over …
55 | chain 1 P5R | 0.00132 average fractional NGS count over selection days 2 and 3 (reads of this peptide / all reads for the bait, averaged over …
56 | chain 1 P5T | 0.00773 average fractional NGS count over selection days 2 and 3 (reads of this peptide / all reads for the bait, averaged over …
57 | chain 1 P9R | 0.000295 average fractional NGS count over selection days 2 and 3 (reads of this peptide / all reads for the bait, averaged over …
58 | chain 1 P9A | 0.00224 average fractional NGS count over selection days 2 and 3 (reads of this peptide / all reads for the bait, averaged over …
59 | chain 1 P9W | 0.00602 average fractional NGS count over selection days 2 and 3 (reads of this peptide / all reads for the bait, averaged over …
60 | chain 1 P9L | 0.00194 average fractional NGS count over selection days 2 and 3 (reads of this peptide / all reads for the bait, averaged over …
61 | chain 1 P9Q | 0.00144 average fractional NGS count over selection days 2 and 3 (reads of this peptide / all reads for the bait, averaged over …
62 | chain 1 P9S | 0.000868 average fractional NGS count over selection days 2 and 3 (reads of this peptide / all reads for the bait, averaged over …
63 | chain 1 P9D | 0.00109 average fractional NGS count over selection days 2 and 3 (reads of this peptide / all reads for the bait, averaged over …
64 | chain 1 D2Q | 0.00168 average fractional NGS count over selection days 2 and 3 (reads of this peptide / all reads for the bait, averaged over …
65 | chain 1 D2E | 0.0027 average fractional NGS count over selection days 2 and 3 (reads of this peptide / all reads for the bait, averaged over …
66 | chain 1 D2I | 0.00123 average fractional NGS count over selection days 2 and 3 (reads of this peptide / all reads for the bait, averaged over …
67 | chain 1 D2H | 0.000405 average fractional NGS count over selection days 2 and 3 (reads of this peptide / all reads for the bait, averaged over …
68 | chain 1 R1F | 0.000504 average fractional NGS count over selection days 2 and 3 (reads of this peptide / all reads for the bait, averaged over …
69 | chain 1 R1H | 0.0063 average fractional NGS count over selection days 2 and 3 (reads of this peptide / all reads for the bait, averaged over …
70 | chain 1 R1L | 0.000379 average fractional NGS count over selection days 2 and 3 (reads of this peptide / all reads for the bait, averaged over …
71 | chain 1 R1P | 0.000732 average fractional NGS count over selection days 2 and 3 (reads of this peptide / all reads for the bait, averaged over …
72 | chain 1 R1Q | 7.8e-05 average fractional NGS count over selection days 2 and 3 (reads of this peptide / all reads for the bait, averaged over …
73 | chain 1 R1T | 0.000703 average fractional NGS count over selection days 2 and 3 (reads of this peptide / all reads for the bait, averaged over …
74 | chain 1 R1N | 0.00136 average fractional NGS count over selection days 2 and 3 (reads of this peptide / all reads for the bait, averaged over …
75 | chain 1 R1M | 0.00223 average fractional NGS count over selection days 2 and 3 (reads of this peptide / all reads for the bait, averaged over …
